Laboratory results published in paper PMC7652416.

Assays:
[1] = target: ClpX^ΔN (residues 62–424) T199S mutant (E. coli) (UniProt P0A6H1)
[2] = target: ClpX^ΔN (residues 62–424) T199V mutant (E. coli) (UniProt P0A6H1)
[3] = target: E. coli ClpX^∆N (residues 62–424) (E. coli) (UniProt P0A6H1)

- KM of GFP-ssrA degradation by ClpX^∆N variant/ClpP (Michaelis-Menten fit) [1]: 6.3 µM
- KM of GFP-ssrA degradation by ClpX^∆N variant/ClpP (Michaelis-Menten fit) [2]: 89 µM
- KM of GFP-ssrA degradation by ClpX^∆N/ClpP (Michaelis-Menten fit) [3]: 1.3 µM
Substance: GFP-ssrA
